Kd, time constant of dissociation, fast phase and time constant of dissociation, slow phase data for two substances are collected here from doi:10.1101/2020.05.04.076331.

Assay [1] has as its target ^FSClpX (TAMRA-labelled single-chain E. coli ^C169SClpX^ΔN pseudohexamer) (E. coli). As to the kind of experiment: other fluorescence titration.
Assay [2] shares this target. Kind of assay: other fluorescence titration. This is another data set of the same source.
Assay [3] deals with ^FSClpXP (^FSClpX with ClpP) (E. coli) (UniProt P0A6G7). Kind of assay: other fluorescence titration.
Sequence of UniProt P0A6G7 (P0A6G7 whole entry, looked up): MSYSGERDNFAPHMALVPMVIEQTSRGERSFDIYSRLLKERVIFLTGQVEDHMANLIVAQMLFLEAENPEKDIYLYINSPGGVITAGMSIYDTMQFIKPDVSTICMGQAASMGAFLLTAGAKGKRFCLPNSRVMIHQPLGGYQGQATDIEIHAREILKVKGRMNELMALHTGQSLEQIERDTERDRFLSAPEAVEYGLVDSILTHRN
Assay [4] has the same target. As to the kind of experiment: stopped-flow fluorescence quenching.
Assay [5] shares this target. Kind of assay: other fluorescence titration. The source holds these as a separate data set.
Assay [6] shares this target. Kind of assay: stopped-flow fluorescence quenching. This is another data set of the same source.

Like-named read-outs stand apart in the source and are kept apart here.

Turning to “^UFtitin-BQ-ssrA (titin-BQ-ssrA unfolded by carboxymethylation of otherwise-buried cysteines) (domain or fragment)”, the figures for the equilibrium dissociation constant (Kd) in assay [1] and in assay [2] were 90 nM and 550 nM, respectively.
Take “titin-BQ-ssrA (ssrA-tagged I27 domain of human titin labelled with the BHQ-10 quencher) (domain or fragment)”: the Kd (usually the constant that tells how readily two partners part at equilibrium) was 59 nM in assay [1], 110 nM in assay [2], 60 nM in assay [3] and 30 to 100 nM in assay [5]. Further, the figures for the time constant of dissociation, fast phase in assay [4] and in assay [6] were 2 s and 3 s, respectively. Further, the time constant of dissociation, slow phase was determined as 240 s in assay [4] and 50 s in assay [6].
